Here are results for 16 sequences from the nanobody polyreactivity screen of Harvey et al. (2022).

The data set in a line: yeast display, Sf9 membrane polyspecificity reagent, FACS + sequencing; frameworks hold sequencing errors. The procedure, abridged:
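Nanobodies from a synthetic yeast display library (Saccharomyces cerevisiae BJ5465), induced 36–48 hours with galactose, were stained 1 hour at 4 °C with 10% biotinylated, detergent-solubilized Sf9 membrane reagent, enriched on streptavidin microbeads, then FACS-sorted. Anti-HA (expression) and streptavidin (reagent binding) fluorescence set low and high (top ~1%) gates. Polyreactivity labels come from the gate of origin. Genes were colony-PCR amplified, MiSeq 2 × 250 sequenced and filtered by CDR length.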
Consider “QVQLVESGGGLVQAGGSLRLSCAASGSTFKPYAMGWYRQAPGKERELVAAISKSGGSTRYADSVKGRFTISRDNAKNTVYLQMNSLKPEDTAVYYCAADYIYVKYEYWGQGTQVTVSS”, for which the “polyreactivity (PSR sort gate)” value is listed as “high polyreactivity”.
With “QVQLVESGGGLVQAGGSLRLSCAATGSTYPRNDRGWYRQAPGKERELVAAISRGGSTNYADSVKGRFTISRDNAKNTVYLQMNSLKPEDTAVYFCAAQIFESAYGMDYWGQGTQVTVSS”, the “polyreactivity (PSR sort gate)” value was “low polyreactivity”.
As to “QVQLVESGGGLVQAGGSLRLSCAASGITFWYYAMGWYRQAPGKERELVAAITGGDSTNYADSVKGRFTISRDNAKNTVYLQMNSLKPEDTAVYYCNAEGSYEGYDDYWGHGTQVTVSS”, the “polyreactivity (PSR sort gate)” value was “high polyreactivity”.
In the case of “QVQLVESGGGLVQAGGSLRLSCAASGFTFSYYAMGWYRQAPGKERELVAAITFTGGSTYYADSVKGRFTISRDNAKNTVYLQMNSLKPEDTAVYYCAADWYYGDEYEYWGQGTQVTVSS” it was “high polyreactivity”; in that of “QVQLVESGGGLVQAGGRLRLSCAASGSIFGRNAMGWYRAAPGKERELVAAITGSTYYADSVKGRFTSSRDNAKNTVYLQMNSLKPEDTAVYYCNADYDVGWTYDTEYNYWGQGTQVTVSS”, “low polyreactivity”.
In the case of “QVQLEESGGGLVQAGGSLRLSCAASGRTFSPNTMGWYRQAPGKEREFVAAITASGDSTYYADSVKGRFTISRDNAKYSVYLQMNRLKPEDTAVYYCATDSNWYWGFNYWGQGTQVTVSS” it was “low polyreactivity”; in that of “QVQLVESGGGLVQAGGSLRLSCAGSGSTFGWYVMGWYRQAPGKERELVASITGSGGSTYYADSVKGRFTISRDNAKNTAYLQMNSLKPEDTAVYYCAADTGWYDDWTHDYWGQGTQVTVSS”, “low polyreactivity”; in that of “QVQLVESGGGLVQAGGSLRLSCADSGSTFYRYAMGWYRPAPGKERELVAAISKRGGSTYYADSVKGRFTISRDNAKNTVYLQMNSLKPEDTAVYYCAADPFHYGGGDDYWGQGTQVTVSS”, “high polyreactivity”.
The same measure for “QVHLVESGGGLVQSGGSLRLSCAATGNIFGRYAKGWYRQAPGKERELVAGISRGVSTSYADSVKGPFTISRDNAKNTVYLQMYSLKPDDTAVYYCTKRPWYLSDYWGQGTEVTVSS”: “low polyreactivity”.
Regarding “HVQLVESGGGLVEAGGSLRLSCAASGYISYVNAMGWYRQAPGKERELVATISIRGGRTYYADSVKGRFTISRDNAKNTVYLQMNSLKPEDTAVYYCNVRRAYYRRGPYYSTYYYWGQGTQVTVSS”, the “polyreactivity (PSR sort gate)” value is given as “high polyreactivity”.
As to “QVQLVESGGGLVQAGGSLRLSCAASGLTLRNYAMGWYRQAPGKERELVAAITTGGGRTYYADSVKGRFTISRDNAKNTVYFQMNSVKPEDTAVYYCAADAPREYVDHYKYDDDYWGQGTQVTVSS”, the “polyreactivity (PSR sort gate)” value is recorded as “low polyreactivity”.
In the case of “QVQLVESGAGLVQAGGSLRISCAASGRTFFPNAMGWYRQAPGKERELFAAISSGGGGTYYADSVKGRFTISRDNAKNTVYLQMNSLKPEDTAVYYCAARNSKVEEDGNYWGQGTQVTVSS” it was “low polyreactivity”.
Take “QVQLVESGGGLVQAGGSLRLSCAASGRIFDVYAMGWYRQAPGKERELVAAITWSGTSTYYADSVKGRFTISRDNAKNTVYLQMNSLKPEDTAVYYCNALSYGRYLNYRGGMDYWGQGTQVTVSS”: the “polyreactivity (PSR sort gate)” value is listed as “high polyreactivity”.
“QVQLGESGGGLVQAGGSLRLSCAASGRIFPVNAMGWYRQAPGKERELVATITSYSSTYADSVKGRFTISRDNAMNTVVLQMNCLKPEDTAVYYCNADQGYFGYDYWGQGTQVTVSS”: the “polyreactivity (PSR sort gate)” value is recorded as “low polyreactivity”.
With “QVQLVESVGGLVQAGGSLRLSCAASGRTFSGNAMGWYIQAPGKERELVAGISTSGGSTYYADSVKGRFTISRDNSKNTVYLQMNSLKPEDTAVYYCNARSRYRYYRSFGGDYWGQGTQVTVSS”, the “polyreactivity (PSR sort gate)” value is “high polyreactivity”.
Take “QVQLVESGGGLVQAGGSLRLSCAASGRTFRANVMGWYRQAPGKERELVAAISKSGGRTYYADSVKGRFTISRDNAKNTVYLQMNSLKPEDTAVYYCAADIPSYRGYGYDYWGQGTQVTVSS”: the “polyreactivity (PSR sort gate)” value was “high polyreactivity”.
